Test results: patent US20110301073

Experiments:
[1] = system: TALE test backbone, repeat 5 RVD VG (synthetic (Xanthomonas TALE)); conditions: ELISA
[2] = system: TALE test backbone, repeat 5 RVD QG (synthetic (Xanthomonas TALE)); conditions: ELISA
[3] = system: TALE test backbone, repeat 5 RVD AD (synthetic (Xanthomonas TALE)); conditions: ELISA
[4] = system: TALE test backbone, repeat 5 RVD KD (Xanthomonas sp. (engineered)); conditions: RVD KD
[5] = system: TALE test backbone, repeat 5 RVD IP (synthetic (Xanthomonas TALE)); conditions: ELISA
[6] = system: TALE test backbone, repeat 5 RVD IA (synthetic (Xanthomonas TALE)); conditions: ELISA
[7] = system: TALE test backbone, repeat 5 RVD RA (synthetic (Xanthomonas TALE)); conditions: ELISA
[8] = system: TALE test backbone, repeat 5 RVD YG (synthetic (Xanthomonas TALE)); conditions: ELISA
[9] = system: TALE test backbone, repeat 5 RVD RI (synthetic (Xanthomonas TALE)); conditions: ELISA
[10] = system: TALE test backbone, repeat 5 RVD KT (synthetic (Xanthomonas TALE)); conditions: ELISA
[11] = system: TALE test backbone, repeat 5 RVD HA (synthetic (Xanthomonas TALE)); conditions: ELISA
[12] = system: TALE test backbone, repeat 5 RVD HG (synthetic (Xanthomonas TALE)); conditions: ELISA
[13] = system: TALE test backbone, repeat 5 RVD NN (Xanthomonas sp. (engineered)); conditions: RVD NN
[14] = system: TALE test backbone, repeat 5 RVD IG (synthetic (Xanthomonas TALE)); conditions: ELISA
[15] = system: TALE test backbone, repeat 5 RVD KG (synthetic (Xanthomonas TALE)); conditions: ELISA
[16] = system: TALE test backbone, repeat 5 RVD HI (synthetic (Xanthomonas TALE)); conditions: ELISA
[17] = system: TALE test backbone, repeat 5 RVD RG (synthetic (Xanthomonas TALE)); conditions: ELISA
[18] = system: TALE test backbone, repeat 5 RVD AT (synthetic (Xanthomonas TALE)); conditions: ELISA
[19] = system: TALE test backbone, repeat 5 RVD NG (Xanthomonas sp. (engineered)); conditions: RVD NG
[20] = system: TALE test backbone, repeat 5 RVD NS (synthetic (Xanthomonas TALE)); conditions: ELISA
[21] = system: TALE test backbone, repeat 5 RVD SG (synthetic (Xanthomonas TALE)); conditions: ELISA
[22] = system: TALE test backbone, repeat 5 RVD AA (synthetic (Xanthomonas TALE)); conditions: ELISA
[23] = system: TALE test backbone, repeat 5 RVD NI (Xanthomonas sp. (engineered)); conditions: RVD NI
[24] = system: TALE test backbone, repeat 5 RVD TA (synthetic (Xanthomonas TALE)); conditions: ELISA
[25] = system: TALE test backbone, repeat 5 RVD KI (synthetic (Xanthomonas TALE)); conditions: ELISA
[26] = system: TALE test backbone, repeat 5 RVD HN (synthetic (Xanthomonas TALE)); conditions: ELISA
[27] = system: TALE test backbone, repeat 5 RVD NA (synthetic (Xanthomonas TALE)); conditions: ELISA
[28] = system: TALE test backbone, repeat 5 RVD DH (synthetic (Xanthomonas TALE)); conditions: ELISA
[29] = system: TALE test backbone, repeat 5 RVD AE (synthetic (Xanthomonas TALE)); conditions: ELISA
[30] = system: TALE test backbone, repeat 5 RVD GG (synthetic (Xanthomonas TALE)); conditions: ELISA
[31] = system: TALE test backbone, repeat 5 RVD AN (synthetic (Xanthomonas TALE)); conditions: ELISA
[32] = system: TALE test backbone, repeat 5 RVD LA (synthetic (Xanthomonas TALE)); conditions: ELISA
[33] = system: TALE test backbone, repeat 5 RVD SN (synthetic (Xanthomonas TALE)); conditions: ELISA
[34] = system: TALE test backbone, repeat 5 RVD QA (synthetic (Xanthomonas TALE)); conditions: ELISA
[35] = system: TALE test backbone, repeat 5 RVD ND (Xanthomonas sp. (engineered)); conditions: RVD ND
[36] = system: TALE test backbone, repeat 5 RVD TP (synthetic (Xanthomonas TALE)); conditions: ELISA
[37] = system: TALE test backbone, repeat 5 RVD KS (synthetic (Xanthomonas TALE)); conditions: ELISA
[38] = system: TALE test backbone, repeat 5 RVD DK (synthetic (Xanthomonas TALE)); conditions: ELISA
[39] = system: TALE repeat framework L25A (SEQ 418) repeat 5: L25A (Xanthomonas sp. (engineered)); conditions: average of 3 experiments
[40] = system: TALE repeat framework Q23W (SEQ 416) repeat 5: Q23W (Xanthomonas sp. (engineered)); conditions: average of 3 experiments
[41] = system: TALE repeat framework L25Q (SEQ 419) repeat 5: L25Q (Xanthomonas sp. (engineered)); conditions: average of 3 experiments
[42] = system: TALE repeat framework V7A (SEQ 403) repeat 5: V7A (Xanthomonas sp. (engineered)); conditions: average of 3 experiments
[43] = system: TALE repeat framework Q5A (SEQ 75) repeat 5: Q5A (Xanthomonas sp. (engineered)); conditions: average of 3 experiments
[44] = system: TALE repeat framework R24A (SEQ 417) repeat 5: R24A (Xanthomonas sp. (engineered)); conditions: average of 3 experiments
[45] = system: TALE repeat framework A8L (SEQ 404) repeat 5: A8L (Xanthomonas sp. (engineered)); conditions: average of 3 experiments
[46] = system: TALE repeat framework T21A (SEQ 411) repeat 5: T21A (Xanthomonas sp. (engineered)); conditions: average of 3 experiments
[47] = system: TALE repeat framework E20A (SEQ 410) repeat 5: E20A (Xanthomonas sp. (engineered)); conditions: average of 3 experiments
[48] = system: TALE repeat framework I9V (SEQ 407) repeat 5: I9V (Xanthomonas sp. (engineered)); conditions: average of 3 experiments
[49] = system: TALE repeat framework A10L (SEQ 408) repeat 5: A10L (Xanthomonas sp. (engineered)); conditions: average of 3 experiments
[50] = system: TALE repeat framework P27L (SEQ 422) repeat 5: P27L (Xanthomonas sp. (engineered)); conditions: average of 3 experiments
[51] = system: TALE repeat framework P27A (SEQ 421) repeat 5: P27A (Xanthomonas sp. (engineered)); conditions: average of 3 experiments

## TTGACCATCCT (double strand) [CCA target]
[1]
  binding signal (normalized ELISA): 0.02
[2]
  binding signal (normalized ELISA): 0.11
[3]
  binding signal (normalized ELISA): 0.4
[4]
  binding signal (normalized ELISA): 0.61
[5]
  binding signal (normalized ELISA): 0.13
[6]
  binding signal (normalized ELISA): 0.24
[7]
  binding signal (normalized ELISA): 0.89
[8]
  binding signal (normalized ELISA): 0.02
[9]
  binding signal (normalized ELISA): 0.05
[10]
  binding signal (normalized ELISA): 0.81
[11]
  binding signal (normalized ELISA): 0.53
[12]
  binding signal (normalized ELISA): 0.11
[13]
  binding signal (normalized ELISA): 0
[14]
  binding signal (normalized ELISA): 0.02
[15]
  binding signal (normalized ELISA): 0.27
[16]
  binding signal (normalized ELISA): 0.1
[17]
  binding signal (normalized ELISA): 0.26
[18]
  binding signal (normalized ELISA): 0.58
[19]
  binding signal (normalized ELISA): 0.14
[20]
  binding signal (normalized ELISA): 0.26
[21]
  binding signal (normalized ELISA): 0.23
[22]
  binding signal (normalized ELISA): 0.35
[23]
  binding signal (normalized ELISA): 0.04
[24]
  binding signal (normalized ELISA): 0.2
[25]
  binding signal (normalized ELISA): 0.11
[26]
  binding signal (normalized ELISA): 0
[27]
  binding signal (normalized ELISA): 0.67
[28]
  binding signal (normalized ELISA): 0.01
[29]
  binding signal (normalized ELISA): 0
[30]
  binding signal (normalized ELISA): 0.35
[31]
  binding signal (normalized ELISA): 0
[32]
  binding signal (normalized ELISA): 0.02
[33]
  binding signal (normalized ELISA): 0.01
[34]
  binding signal (normalized ELISA): 0.19
[35]
  binding signal (normalized ELISA): 0.73
[36]
  binding signal (normalized ELISA): 0.2
[37]
  binding signal (normalized ELISA): 0.78
[38]
  binding signal (normalized ELISA): 0
[39]
  binding signal (normalized ELISA): 1.09
[40]
  binding signal (normalized ELISA): 0.88
[41]
  binding signal (normalized ELISA): 0.9
[42]
  binding signal (normalized ELISA): 0.26
[43]
  binding signal (normalized ELISA): 1.03
[44]
  binding signal (normalized ELISA): 0.92
[45]
  binding signal (normalized ELISA): 0.73
[46]
  binding signal (normalized ELISA): 1.05
[47]
  binding signal (normalized ELISA): 0.82
[48]
  binding signal (normalized ELISA): 0.76
[49]
  binding signal (normalized ELISA): 0.25
[50]
  binding signal (normalized ELISA): 1.29
[51]
  binding signal (normalized ELISA): 1.21
